{"source": "the DeepSol protein solubility set"}
{"assay": "soluble on expression in E. coli; label from the status in PepcDB or PDB records"}
{"sequence": "MRNVFCIGELLIDFVCRNTNVSLVNGSNFEKKAGGAPANVAAAITKLGGHATFMGQVGNDPFGEFLEQTLQHAHVDTSMLIKDKQTTLAFVSIDQNGERDFTFMRGADGEYHFNSIDLSKIKTNDLIHFGSATALLSSPLKDTYFQLLQHARESGQFISFDPNYRNALITNTEQFIQDCLTFIKHAHFVKVSQEEAIMLSKESDLQQSALKLLNHGAKAVAITLGKDGTLLATKDKQTIVPSISIQQVDTTGAGDAFVGAMLYQIAKSEQMFLHNFEGLTTFISFANKVGALTCTNYGAISSLPSLTDVKAYE", "soluble on expression in E. coli": "not soluble"}
{"sequence": "KLNRAIGVIDSGVGGLTVAKELIRQLPKERIIYLGDTARCPYGPRSREEVRQFTWEMTEHLLDLNIKMLVIACNTATAVVLEEMQKQLPIPVVGVIHPGSRTALKVTNTYHVGIIGTIGTVKSGAYEEALKSINNRVMVESLACPPFVELVESGNFESEMAYEVVRETLQPLKNTDIDTLILGCTHYPILGPVIKQVMGDKVQLISSGDETAREVSTILYHSKMLNEGEEQSDHLFLTTGKIGLFKEIASKWFGQPIENVKHIHLEK", "soluble on expression in E. coli": "soluble"}
{"sequence": "GIRSLDGQEDEFDANEQEEIEAKRECALRGRVSVAITPAQSREHGQGDQHGGDRSTHTDDPQAGPWHSAAPAQLSDSIRTCIDAIVDRYVTRRDADPVAKRHALAAALVELRAVGVSHPAVAPLTATIWRLMREHLRAYDKATAAENLLALRTRLLELMPSELEPVPALRNFHLLLPLILLNAEKPRRRVDRTHAITRLNTLLIEQPQQAAQEVRP", "soluble on expression in E. coli": "not soluble"}
{"sequence": "MKEKIPFYNEKEFHDMVKKTKKGTFSGWYIIDKDNKSVEFSGSFNRQFKLNKPVIPVNTEYVTRKEFNEYKVSNDQRLTKIETTLAAQGEQINKLTQTVEKQGEQINQLVQVVLLHGEQINKLTQTVEKQGEQIKELQVEQKAQGEQIKAQGKQIKAQGKTLKSILQALGGINKRLDKIDPPKLEHHHHHH", "soluble on expression in E. coli": "not soluble"}
{"sequence": "MSLMYKVLLVDDEYMILQGLTMIIDWQALGFEVVQTARSGKEALTYLTQYPVDVMISDVTMPGMTGLDLIEAAKTYHPQLQTLILSGYQEFSYVQKAMELETKGYLLKPVDKAELQAKMKQFKDCLDAQQAESIRQEAYHDSLLTLWLTDELSEKEFQQLSQGLPAAALIGFTVLYLDCQEWQAAIDAYFEQEGQPFYLKKEEDKKVYLAVLLGKTDQAKAFTYDLQKRFSRNMHQLILGETVDDWENVYESYNQVLKSLFYNCEVSPIRAKDKSKIELPESRLQFFAFNKALMIGDEPTILSKLEAIFDEMKTLNFSPEDVKHVSFLLFSDIYRQFPILDKMTYLSMVKTIHDSQSIDRILRELKKVLDVTNQNNSPEKRYSDLVSETIDCIRKEYHQELTLKAIADRLHVNGVYLGQCFKNETERSFTQYLNHVRIQKAQQLLLYTNQSINEIAYETGYNTNHYFIKMFKKLNGLSPKEFRDRYKDNYQAEGHHHHHH", "soluble on expression in E. coli": "soluble"}
{"sequence": "MASATLPRFDLMGWDKKDIADPYPVYRRYREAAPVHRTASGPGKPDTYYVFTYDDVVRVLSNRRLGRNARVASGDTDTAPVPIPTEHRALRTVVENWLVFLDPPHHTELRSLLTTEFSPSIVTGLRPRIAELASALLDRLRAQRRPDLVEGFAAPLPILVISALLGIPEEDHTWLRANAVALQEASTTRARDGRGYARAEAASQEFTRYFRREVDRRGGDDRDDLLTLLVRARDTGSPLSVDGIVGTCVHLLTAGHETTTNFLAKAVLTLRAHRDVLDELRTTPESTPAAVEELMRYDPPVQAVTRWAYEDIRLGDHDIPRGSRVVALLGSANRDPARFPDPDVLDVHRAAERQVGFGLGIHYCLGATLARAEAEIGLRALLDGIPALGRGAHEVEYADDMVFHGPTRLLLDLPDAALEHHHHHH", "soluble on expression in E. coli": "soluble"}
{"sequence": "KGKKLAVIAVAEHEFNQSENNGPGSAPLDPVDNYYQIREAQAKADIVIVTIHGGNEHFHYPRPGLRKLCKHYIDLGVNAVICHHPHVPGAYEIYNGRPIVYSLGNFVFDTLSMVHEWDVGYMAKLKFNEVD", "soluble on expression in E. coli": "not soluble"}
{"sequence": "MVDGKHRMVYNITRFSCPTFSLSASAAAVAGRLTPAVPQNTLSRKSCYGAATSAPSSSYNVMYQQQEDTGIDAFAQFGQQSQQYHPSPELSEQINASKCSPYLTEILVGCEQLIAEGEEDSPTWISAIRQRFEDPQMDEVSKKIGVKLIIEMAFTMEPNQFRTADPQNTFSNLLKTLSYEVKDFLRVFIVPTLGEYHEGRKQLENDSRVYMAVFYAEVFVKLTLDNGSRFDKIGAALADQIEEILKFQPKDEYMKCLLRAFKVAGAELDTSEDLKLRADHILTIMGGYAKGSPLLGDSVKAQIFSLIECRTRGWDRAAARGPVRSSAGAGGGGGCVADRGEHDSSFDDSTDNDLTEEERQFLESHLEQVESRRGAEEDYDEQEMMKEFGKFVKEELQQAELKSTSEMLQKLEIEKDTAGAATETDETTPKTEEK", "soluble on expression in E. coli": "not soluble"}
{"sequence": "MGHHHHHHSHMIQYIPQRPPIVMISTLVSAEKNVTETELEIPAHGLFVKDGVLHEPGLIENVAQTAAAGVGYACTLTSQPVPVGFIGAVKNLEIDYLPKVGDVLETRVEVLEEIFDMTLIKGESFVKGKRVLTCEMKIVLKK", "soluble on expression in E. coli": "not soluble"}
{"sequence": "IVKASTYMGKRRIGALISMERETGMTDYVETGIPMNANLTSELLINTFIPNTPLHDGAVIINNDTILAAACYLPLSENPFISKELGTRHRAALGVSEVTDCLTIVVSEETGHISLTKNGE", "soluble on expression in E. coli": "soluble"}
{"sequence": "MGSDKIHHHHHHMNFILELLRREQGRQQKELEFSQLPYQQRVAQLKEQKLPLFFYKYHSLHSHNPNKPQEKWEHASDYLINSRFYLSRPANFNDPFDMRAYFTDSVPKEKKRYFLDQLLKIRTPQLTEKDRVLEVKKLLDNPEKLRTIHKLTLDEAVDSFGVSCLSTAPCNILMWSHYANHHRGIAFQFNFAIDIFSFKWLQPVSYSNDFPGIEYFERRDNKYSIALLTKHHGWEYEKEWRIVKPNGAGTYQDFNSKILTGVILGCRIDRKDEDKIRTMIEQRKEQGLSSVKLYKLRQHESRYKLVIKHVE", "soluble on expression in E. coli": "not soluble"}
{"sequence": "MPNSSILLIFLLTIVILIAPEENHKTYCEVLTSNNSNCTAYCKEKPECSWGRCEGYFKTNCVCYSDKYQFCE", "soluble on expression in E. coli": "not soluble"}
{"sequence": "GSHMETVFTEKAPKPVGPYSQAIKVGNTLYVSGQIPIDPRTNEIVKGDIKVQTRQVLDNIKEIVKAAGFSLSDVAMAFVFLKDMNMFNDFNSVYAEYFKDKPPARVTVEVSRLPKDALIEIAVICSKG", "soluble on expression in E. coli": "soluble"}
{"sequence": "MGSDKIHHHHHHMQWETVIGLEIHAQLSTRSKIFSGASVAYGAEPNSQACAVDIALPGVLPVLNRQAIEYAIRFGLAIDATINSPSVFARKNYFYPDLPKGYQISQLEHPIVEGGHVAIQTGDQEKTIRLTRAHLEEDAGKSTHEEFHGMTGIDLNRAGTGLLEIVSEPDMRSSAEAVAYAKVLHSLVRWIGICDGNMQEGSFRCDANVSVRPAGSEALGTRCEIKNLNSFRFLERAIDYEVARQIDILESGGSITQETRLYDADRDETRTMRSKEDAHDYRYFPDPDLLPVIIPQEWIDQIREKLPELPKDKRNRYIQDFGLQTYDANILTAARELADYFEQMVSVLPGQSKLCANWIMGEVSARLNKEGLEIARSPISPEQLAGLLLRITDGTISGKIAKDVFDSMWQSNGDSADTIIDAKNLRQISDDSEIEKWVDDVLAANPQQVADYRAGKEKAFNSLVGQVMKTSKGKANPAQVNSVLKKRLTE", "soluble on expression in E. coli": "not soluble"}
{"sequence": "MAHHHHHHMGTLEAQTQGPGSMSMAQQFIDIGANLTDDNYFGNYHGKHYHEEDIDVVLQRAERNGLSHIIITSGCLNDFKKAIEIINKYQNLTNIKLVTTIGVHPTRTNELKQEGYLDELLLLCEKNIDKVVAIGEIGLDYERLQFSDKETQLSGYRTLSILHQKYPYLPFFFHCRKSWSDLCQLNKELGYNGCKGVVHCFDGTEEEMNQILNEGWDIGVTGNSLQSIELLNVMKQIPIERLHIETDCPYCGIKKTSAGFKYLKEKDFGVKVEKYQRNKYVQRRNEPSNIIDIAIIMSSIKHISLFEFVNKVYSNSMNMYFPTMN", "soluble on expression in E. coli": "soluble"}
{"sequence": "DIHRQAYAAMLHSSQSSLGTALKFFHAQSVIDNAYDQEHVHYIDRQVKTRKGMPEASADSIRALLEIDLPARGYSKIDVPCKGSDFCIIGQQHPNSAHFVAIPDYQFLDKSGFDRVVYIWPQGYTLAEEACYFYYVNQASTDSIVRGHVTQGC", "soluble on expression in E. coli": "not soluble"}
